In publication PMC9910501:

Target: OsASI1-BAH (residues 19 to 183) (rice)
Assay: ITC

- Kd: 184 nM
Substance: OsSUVH6 N-terminal peptide (OsSUVH6N, residues 287 to 304)
